Consider 8 molecules from patent US9605073B2, “Modulation of activity of neurotrophins” (H. Lundbeck, priority 2002, dated 2017).

Like-named read-outs stand apart in the source and are kept apart here.

In experiment [1] the target is T1, proNGF binding to Sortilin (Homo sapiens, UniProt Q99523).
T1 construct: to 51 fmol/mm^2 purified Sortilin extracellular domain (lower panel); made in house; host or cells: Sortilin: stably transfected CHO cells; proNGF: E. coli
T1 sequence (Q99523 78-755 limits assumed): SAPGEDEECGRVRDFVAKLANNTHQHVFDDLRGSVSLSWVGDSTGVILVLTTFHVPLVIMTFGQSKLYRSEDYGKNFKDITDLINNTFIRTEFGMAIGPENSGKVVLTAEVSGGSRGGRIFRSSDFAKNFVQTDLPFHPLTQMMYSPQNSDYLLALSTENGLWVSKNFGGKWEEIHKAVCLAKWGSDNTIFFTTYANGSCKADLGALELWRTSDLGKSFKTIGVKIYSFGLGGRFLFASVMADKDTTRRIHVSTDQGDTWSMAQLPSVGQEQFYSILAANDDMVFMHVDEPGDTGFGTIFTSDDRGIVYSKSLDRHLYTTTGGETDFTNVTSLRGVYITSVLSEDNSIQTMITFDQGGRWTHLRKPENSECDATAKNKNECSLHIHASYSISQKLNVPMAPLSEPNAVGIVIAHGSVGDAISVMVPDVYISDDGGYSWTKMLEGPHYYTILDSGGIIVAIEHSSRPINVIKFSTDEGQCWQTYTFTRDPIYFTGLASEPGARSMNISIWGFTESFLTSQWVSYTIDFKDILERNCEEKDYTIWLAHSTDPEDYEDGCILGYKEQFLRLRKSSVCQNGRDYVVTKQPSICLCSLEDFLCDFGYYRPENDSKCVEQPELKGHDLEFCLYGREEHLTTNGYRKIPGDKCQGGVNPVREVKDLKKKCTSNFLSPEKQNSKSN
As to the kind of experiment: Inhibition of proNGF binding to immobilized Sortilin (BIAcore). Conditions: prebound then coinjected, 51 fmol/mm^2 Sortilin. On the technique in general: SPR reads the build-up and loss of mass on a sensor chip optically.
Description: FIG. 6: Inhibition of proNGF binding to immobilized Sortilin by RAP (receptor-associated protein), the propeptide of proNGF, and the Sortilin propeptide. The inhibitors were prebound to Sortilin followed by coinjection with 200 nM proNGF. […] Maximal proNGF binding is measured without preincubation with the respective inhibitors.

The target of experiment [2] is T2, Sortilin extracellular domain (Homo sapiens, UniProt Q99523).
T2 construct: purified Sortilin extracellular domain (lower panel); made in house; host or cells: CHO cells (stably transfected)
T2 sequence (Q99523 78-755 limits assumed): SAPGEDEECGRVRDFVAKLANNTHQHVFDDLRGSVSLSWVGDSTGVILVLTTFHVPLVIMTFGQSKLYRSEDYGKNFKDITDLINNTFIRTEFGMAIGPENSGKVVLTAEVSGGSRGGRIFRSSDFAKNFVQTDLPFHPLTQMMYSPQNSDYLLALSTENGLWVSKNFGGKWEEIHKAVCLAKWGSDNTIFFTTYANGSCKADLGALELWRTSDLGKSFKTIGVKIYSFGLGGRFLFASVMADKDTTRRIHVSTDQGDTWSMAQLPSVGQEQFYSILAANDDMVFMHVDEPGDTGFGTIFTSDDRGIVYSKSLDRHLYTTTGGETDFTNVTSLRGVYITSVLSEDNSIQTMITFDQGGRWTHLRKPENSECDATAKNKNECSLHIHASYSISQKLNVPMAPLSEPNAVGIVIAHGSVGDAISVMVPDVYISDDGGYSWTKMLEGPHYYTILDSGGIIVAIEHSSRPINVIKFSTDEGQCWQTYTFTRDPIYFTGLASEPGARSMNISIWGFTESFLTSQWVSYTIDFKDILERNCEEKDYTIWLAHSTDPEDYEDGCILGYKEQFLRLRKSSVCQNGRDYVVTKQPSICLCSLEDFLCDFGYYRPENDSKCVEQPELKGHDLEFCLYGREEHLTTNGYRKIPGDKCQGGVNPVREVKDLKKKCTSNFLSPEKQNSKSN
As to the kind of experiment: Surface plasmon resonance (BIAcore) binding to immobilized purified Sortilin extracellular domain. Here is the method:
(§1) FIG. 2: Characterization of NGF binding to p75, TrkA, and Sortilin as measured by surface plasmon resonance analysis (BIAcore). Binding of 50-500 nM NGF was measured to 91.5 fmol/mm^2 immobilized p75-IgG-Fc chimeric protein (upper panel), to 66 fmol/mm^2 immobilized TrkA-IgG-Fc (middle panel), and to 51 fmol/mm^2 purified Sortilin extracellular domain (lower panel).
(§2) Mature murine NGF was from Austral Biologicals (San Ramon, Calif.), recombinant human p75 neurotrophin receptor/Fc and human TrkA/Fc chimeras were from R&D systems (Oxon, UK). Human Sortilin was produced in stably transfected CHO-cells and purified as described elsewhere (Munck Petersen et al, EMBO J. (1999) 18:595-604).
(§3) FIG. 3: Characterization of proNGF binding to p75, TrkA, and Sortilin as measured by surface plasmon resonance analysis (BIAcore). Binding of 25-500 nM proNGF was measured to 91.5 fmol/mm^2 immobilized p75-IgG-Fc chimeric protein (upper panel), to 66 fmol/mm^2 immobilized TrkA-IgG-Fc (middle panel), and to 51 fmol/mm^2 purified Sortilin extracellular domain (lower panel).
(§4) FIG. 4: Characterization of binding of the proNGF propeptide to p75, TrkA, and Sortilin as measured by surface plasmon resonance analysis (BIAcore). Binding of 25-500 nM propeptide was measured to 91.5 fmol/mm^2 immobilized p75-IgG-Fc chimeric protein (upper panel), to 66 fmol/mm^2 immobilized TrkA-IgG-Fc (middle panel), and to 51 fmol/mm^2 purified Sortilin extracellular domain (lower panel).
FIG. 7: Characterization of proBDNF and BDNF binding to purified Sortilin as measured by surface plasmon resonance (BIAcore). Rat proBDNF was produced in 293 cells as described in Lee, R., Kermani, P., Teng, K. K. & Hempstead, B. L. Regulation of cell survival by secreted proneurotrophins. Science 294, 1945-1948 (2001). and purified from the conditioned medium. Mature recombinant human BDNF was from Promega (#G1491) and the pro-domain of human BDNF fused to GST (glutathione S-transferase) was produced in E. coli and purified by glutathione-sepharose affinity chromatography. Binding of 5-500 nM proBDNF (upper panel), pro-domain of proBDNF (a GST-fusion protein, middle panel) or BDNF (lower panel) was measured to 94 fmol/mm2 immobilized purified Sortilin extracellular domain. The experiment was carried out essentially as described for FIGS. 2-4.
(§5) All the data provided in FIG. 2-7 are obtained by surface plasmon resonance measurements (BIAcore analysis)

Experiment [3] deals with T3, p75 neurotrophin receptor/Fc (Homo sapiens, UniProt P08138).
T3 construct: purchased R&D systems (Oxon, UK)
T3 sequence (P08138 with tags, fused parts or gaps limits assumed): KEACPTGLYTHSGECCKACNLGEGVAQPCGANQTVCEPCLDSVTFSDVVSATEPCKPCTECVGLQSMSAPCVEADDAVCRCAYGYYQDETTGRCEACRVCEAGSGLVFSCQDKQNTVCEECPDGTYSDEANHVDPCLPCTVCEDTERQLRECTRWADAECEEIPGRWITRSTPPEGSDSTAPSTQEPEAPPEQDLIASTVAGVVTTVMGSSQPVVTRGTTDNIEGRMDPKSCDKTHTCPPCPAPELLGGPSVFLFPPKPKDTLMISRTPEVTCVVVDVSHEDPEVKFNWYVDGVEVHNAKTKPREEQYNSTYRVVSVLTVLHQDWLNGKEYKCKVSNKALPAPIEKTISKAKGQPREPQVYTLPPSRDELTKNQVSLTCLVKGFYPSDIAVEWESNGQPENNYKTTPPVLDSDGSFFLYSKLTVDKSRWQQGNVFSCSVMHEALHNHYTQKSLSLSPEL
As to the kind of experiment: Surface plasmon resonance (BIAcore) binding to immobilized p75-IgG-Fc chimeric protein. Conditions: 91.5 fmol/mm^2 immobilized p75-IgG-Fc; for Kd: BIAcore. Here is the method:
as §1, §2, §3, §4, §5

Another experiment concerns the target TrkA/Fc. As to the kind of experiment: Surface plasmon resonance (BIAcore) binding to immobilized TrkA-IgG-Fc. Also on record: species or system human. Conditions: 66 fmol/mm^2 immobilized TrkA-IgG-Fc; for Kd: BIAcore. Here is the method:
as §1, §2, §3, §4, §5

Setting [4] is: 5-500 nM ligand, 94 fmol/mm2 immobilized purified Sortilin extracellular domain, read-out: Kd for ligand binding to Sortilin.
Where [5] appears, read: 51 fmol/mm^2 purified Sortilin extracellular domain, BIAcore, read-out: Kd for binding to Sortilin.

In the case of “Sortilin propeptide: Propeptide of Sortilin; SEQ ID NO: 1 amino acid residue 34-77, binds the processed receptor (QDRLDAPPPPAAPLPRWSGPIGVSWGLRAAAAGGAFPRGGRWRR; listed as Homo sapiens)”, in experiment [1] (inhibitor 5 μM), the “inhibition of binding of 200 nM proNGF to immobilized Sortilin” value (“inhibition of binding of 200 nM proNGF” below) is reported as around 65%.

For the molecule “mature BDNF: Mature recombinant human BDNF from Promega (#G1491)”, the Kd (commonly the concentration at which binding is half-saturated) in experiment [2] (setting [4]) is around 40 nM; in experiment [2] (other preparations of mature BDNF, read-out: Kd for ligand binding to Sortilin), 10 nM.

Take “proNGF: Human recombinant proNGF produced and purified in E. coli”: the results for the dissociation constant Kd (in experiment [2] (setting [5]); in experiment [3]; at TrkA/Fc) were around 5 nM, around 12 nM and around 15 nM, respectively.

B1: proBDNF: Rat proBDNF produced in 293 cells and purified from the conditioned medium (protein)
chain: APMKEANVHGQGNLAYPAVRTHGTLESVNGPRAGSRGLTTTSLADTFEHVIEELLDEDQKVRPNEENHKDADLYTSRVMLSSQVPLEPPLLFLLEEYKNYLDAANMSMRVRRHSDPARRGELSVCDSISEWVTAADKKTAVDMSGGTVTVLEKVPVSKGQLKQYFYETKCNPMGYTKEGCRGIDKRHWNSQCRTTQSYVRALTMDSKKRIGWRFIRIDTSCVCTLTIKRGR
Turning to B1, in experiment [2] (setting [4]), the Kd is around 3 nM.

B2: GST-pro-domain of proBDNF: Pro-domain of human BDNF fused to GST, produced in E. coli (protein)
chain: APMKEANIRGQGGLAYPGVRTHGTLESVNGPKAGSGLTSLADTFEHVIEELLDEDQKVRPNEENNKDADLYTSRVMLSSQVPLEPPLLFLLEEYKNYLDAANMSMRVRR
modifications: left off: a dimerising Fc or GST
notes: Pro-domain of human BDNF fused to GST, produced in E. coli
B2: the equilibrium dissociation constant (Kd) in experiment [2] (setting [4]) was around 58 nM.

B3: NGF: Mature murine NGF from Austral Biologicals (protein)
chain: SSTHPVFHMGEFSVCDSVSVWVGDKTTATDIKGKEVTVLAEVNINNSVFRQYFFETKCRASNPVESGCRGIDSKHWNSYCTTTHTFVKALTTDEKQAAWRFIRIDTACVCVLSRKATRRG
For B3, the Kd in experiment [2] (setting [5]) was around 87 nM; in experiment [3], around 1 nM; at TrkA/Fc, around 2 nM.

B4: proNGF propeptide: Human NGF-propeptide expressed in E. Coli; SEQ ID NO: 6 amino acid residue 19-121 (protein, listed as Homo sapiens)
chain: EPHSESNVPAGHTIPQVHWTKLQHSLDTALRRARSAPAAAIAARVAGQTRNITVDPRLFKKRRLRSPRVLFSTQPPREAADTQDLDFEVGGAAPFNRTHRSKR
Take B4: the Kd in experiment [2] (setting [5]) was around 87 nM. For the same molecule, in experiment [3] (25-500 nM propeptide), the “binding to p75” value is recorded as “no detectable binding”. For the same molecule, in the experiment with TrkA/Fc (25-500 nM propeptide), the “binding to TrkA” value is recorded as “no detectable binding”. For the same molecule, the “inhibition of binding of 200 nM proNGF” value in experiment [1] (inhibitor 5 μM) is reported as around 85%.

B5: RAP: Receptor-associated protein, cellular protein of about 300 amino acids, SEQ ID NO: 12 (protein, listed as Homo sapiens)
chain: MAPRRVRSFLRGLPALLLLLLFLGPWPAASHGGKYSREKNQPKPSPKRESGEEFRMEKLNQLWEKAQRLHLPPVRLAELHADLKIQERDELAWKKLKLDGLDEDGEKEARLIRNLNVILAKYGLDGKKDARQVTSNSLSGTQEDGLDDPRLEKLWHKAKTSGKFSGEELDKLWREFLHHKEKVHEYNVLLETLSRTEEIHENVISPSDLSDIKGSVLHSRHTELKEKLRSINQGLDRLRRVSHQGYSTEAEFEEPRVIDLWDLAQSANLTDKELEAFREELKHFEAKIEKHNHYQKQLEIAHEKLRHAESVGDGERVSRSREKHALLEGRTKELGYTVKKHLQDLSGRISRARHNEL
On to B5, for which, in experiment [1] (inhibitor 10 μM), the “inhibition of binding of 200 nM proNGF” value is listed as around 65%.
